# In patent publication US20140031528A1 (NATIONAL UNIVERSITY CORPORATION UNIVERSITY OF TOYAMA, published 2014):
# B1: guinea pig monoclonal antibody to human insulin, Sample No. 5 (antibody, V domains shown)
# VH: QVQLQESGPGLVKPSETLSLTCKVSGFSLMDYSVSWIRQAPGEGLEWIGVIWSSGSTDYNSTFKSRVGMSRDTSKSQVSITLRSLSSEDTAVYYCARAQYFDVWGAGTLVTVSS
# VL: QIVLTQSPASLAASPGQKVTITCTASSSVNNNFFHWYQQKPGASPTLLIYRTSRLASGVPARFSGSGSGTSYSLTISSMEGEDVATYYCLQSNSYTFGAGTRLEIK
# notes: Recombinant guinea pig IgG (γ/κ) secreted by 293FT cells
# Target: human insulin (human, UniProt P01308 25-54; P01308 90-110)
# Sequence (P01308 25-54 limits assumed, chain 1 of 2): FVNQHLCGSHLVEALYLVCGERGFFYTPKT
# Sequence (P01308 90-110 limits assumed, chain 2 of 2): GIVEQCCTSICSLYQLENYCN
# Experiment: ELISA, recombinant antibodies from 293FT culture
# Experimental: The full lengths of the guinea pig γ chain, κ chain, and λ chain gene expression units amplified in the above experiments were genetically introduced into 293FT cells and the cells were cultured for two days to bring about the secretion of recombinant guinea pig antibodies in the cell culture. The ability to bind human insulin of the recombinant guinea pig monoclonal antibodies obtained from the antigen specific and nonspecific plasma cells was examined by the ELISA method (FIG. 9).
binder,measurement,value
B1,binding result,binds
